Experimental data reported in paper PMC1635332.

Legend:
Nf DNA polymerase = target: T1, Nf DNA polymerase (Bacillus phage Nf, UniProt B7SSM2 1-572); test: EMSA
T1 sequence: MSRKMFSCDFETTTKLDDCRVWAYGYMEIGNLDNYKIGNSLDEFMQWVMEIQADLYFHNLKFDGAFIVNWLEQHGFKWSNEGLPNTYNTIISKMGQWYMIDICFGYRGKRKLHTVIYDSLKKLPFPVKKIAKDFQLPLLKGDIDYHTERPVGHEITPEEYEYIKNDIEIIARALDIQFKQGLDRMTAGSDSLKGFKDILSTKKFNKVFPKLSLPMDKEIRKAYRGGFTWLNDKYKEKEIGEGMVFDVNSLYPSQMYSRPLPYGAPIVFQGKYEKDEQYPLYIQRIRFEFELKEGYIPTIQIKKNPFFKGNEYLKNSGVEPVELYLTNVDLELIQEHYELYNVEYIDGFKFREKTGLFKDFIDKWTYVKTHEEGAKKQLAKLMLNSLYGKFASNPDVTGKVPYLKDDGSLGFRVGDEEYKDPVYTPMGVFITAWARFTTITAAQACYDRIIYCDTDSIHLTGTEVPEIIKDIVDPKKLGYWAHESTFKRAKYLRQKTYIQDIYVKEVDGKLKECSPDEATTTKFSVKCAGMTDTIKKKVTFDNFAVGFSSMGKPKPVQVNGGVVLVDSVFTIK

GA-1 DNA polymerase = target: T2, GA-1 DNA polymerase (Bacillus phage GA-1, UniProt Q96206 1-578); test: EMSA
T2 sequence: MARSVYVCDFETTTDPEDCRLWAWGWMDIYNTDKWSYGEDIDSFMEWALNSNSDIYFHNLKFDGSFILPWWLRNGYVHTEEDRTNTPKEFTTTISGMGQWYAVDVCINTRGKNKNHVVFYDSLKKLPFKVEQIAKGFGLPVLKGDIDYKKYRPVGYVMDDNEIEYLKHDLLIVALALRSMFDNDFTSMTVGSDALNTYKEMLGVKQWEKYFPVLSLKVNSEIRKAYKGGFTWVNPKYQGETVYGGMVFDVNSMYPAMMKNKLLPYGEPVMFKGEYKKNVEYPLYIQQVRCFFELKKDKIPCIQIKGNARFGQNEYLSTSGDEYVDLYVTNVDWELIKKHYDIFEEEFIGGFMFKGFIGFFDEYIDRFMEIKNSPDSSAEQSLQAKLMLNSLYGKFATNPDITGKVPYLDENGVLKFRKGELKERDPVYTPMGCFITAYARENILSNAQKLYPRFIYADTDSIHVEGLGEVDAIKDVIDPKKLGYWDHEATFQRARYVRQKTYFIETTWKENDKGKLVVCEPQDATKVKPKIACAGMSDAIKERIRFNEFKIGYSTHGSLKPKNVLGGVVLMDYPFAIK

B1: sp1/sp1c+6 (15/21mer primer/template) (dsDNA)
DNA 1: GATCACAGTGAGTAC
DNA 2: TCTATTGTACTCACTGTGATC
Kd (Nf DNA polymerase): 1.5 nM | binding result (GA-1 DNA polymerase): no binding
